B1: Q96MG2 (protein, UniProt Q96MG2 1-331, looked up)
chain: MSMTTRAWEELDGGLGSCQALEDHSALAETQEDRASATPRLADSGSVPHDSQVAEGPSVDTRPKKMEKEPAARGTPGTGKERLKAGASPRSVPARKKAQTAPPLQPPPPPPALSEELPWGDLSLNKCLVLASLVALLGSAFQLCRDAVPGEAALQARVPEPWVPPSSAPREPSSPLPKFEAQAPPSAPPAPRAEAEVRPKIPGSREAAENDEEEPGEATGEAVREDRVTLADRGPKERPRREGKPRKEKPRKEERPKKERPRKEERPRAAREPREALPQRWESREGGHRPWARDSRDAEPRKKQAWVSPRRPDEEQRPGSRQKLRAGKGRD
modifications: full-length
B2: Q00325 (protein, UniProt Q00325 1-362, looked up)
chain: MFSSVAHLARANPFNTPHLQLVHDGLGDLRSSSPGPTGQPRRPRNLAAAAVEEQYSCDYGSGRFFILCGLGGIISCGTTHTALVPLDLVKCRMQVDPQKYKGIFNGFSVTLKEDGVRGLAKGWAPTFLGYSMQGLCKFGFYEVFKVLYSNMLGEENTYLWRTSLYLAASASAEFFADIALAPMEAAKVRIQTQPGYANTLRDAAPKMYKEEGLKAFYKGVAPLWMRQIPYTMMKFACFERTVEALYKFVVPKPRSECSKPEQLVVTFVAGYIAGVFCAIVSHPADSVVSVLNKEKGSSASLVLKRLGFKGVWKGLFARIIMIGTLTALQWFIYDSVKVYFRLPRPPPPEMPESLKKKLGLTQ
modifications: full-length
B3: P04843 (protein, UniProt P04843 1-607, looked up)
chain: MEAPAAGLFLLLLLGTWAPAPGSASSEAPPLINEDVKRTVDLSSHLAKVTAEVVLAHLGGGSTSRATSFLLALEPELEARLAHLGVQVKGEDEEENNLEVRETKIKGKSGRFFTVKLPVALDPGAKISVIVETVYTHVLHPYPTQITQSEKQFVVFEGNHYFYSPYPTKTQTMRVKLASRNVESYTKLGNPTRSEDLLDYGPFRDVPAYSQDTFKVHYENNSPFLTITSMTRVIEVSHWGNIAVEENVDLKHTGAVLKGPFSRYDYQRQPDSGISSIRSFKTILPAAAQDVYYRDEIGNVSTSHLLILDDSVEMEIRPRFPLFGGWKTHYIVGYNLPSYEYLYNLGDQYALKMRFVDHVFDEQVIDSLTVKIILPEGAKNIEIDSPYEISRAPDELHYTYLDTFGRPVIVAYKKNLVEQHIQDIVVHYTFNKVLMLQEPLLVVAAFYILFFTVIIYVRLDFSITKDPAAEARMKVACITEQVLTLVNKRIGLYRHFDETVNRYKQSRDISTLNSGKKSLETEHKALTSEIALLQSRLKTEGSDLCDRVSEMQKLDAQVKELVLKSAVEAERLVAGKLKKDTYIENEKLISGKRQELVTKIDHILDAL
modifications: full-length
B4: A0A087WW87 (protein, UniProt A0A087WW87 1-121, looked up)
chain: MRLPAQLLGLLMLWVPGSSEDIVMTQTPLSLPVTPGEPASISCRSSQSLLDSDDGNTYLDWYLQKPGQSPQLLIYTLSYRASGVPDRFSGSGSGTDFTLKISRVEAEDVGVYYCMQRIEFP
modifications: full-length
B5: O95782 (protein, UniProt O95782 1-977, looked up)
chain: MPAVSKGDGMRGLAVFISDIRNCKSKEAEIKRINKELANIRSKFKGDKALDGYSKKKYVCKLLFIFLLGHDIDFGHMEAVNLLSSNKYTEKQIGYLFISVLVNSNSELIRLINNAIKNDLASRNPTFMCLALHCIANVGSREMGEAFAADIPRILVAGDSMDSVKQSAALCLLRLYKASPDLVPMGEWTARVVHLLNDQHMGVVTAAVSLITCLCKKNPDDFKTCVSLAVSRLSRIVSSASTDLQDYTYYFVPAPWLSVKLLRLLQCYPPPEDAAVKGRLVECLETVLNKAQEPPKSKKVQHSNAKNAILFETISLIIHYDSEPNLLVRACNQLGQFLQHRETNLRYLALESMCTLASSEFSHEAVKTHIDTVINALKTERDVSVRQRAADLLYAMCDRSNAKQIVSEMLRYLETADYAIREEIVLKVAILAEKYAVDYSWYVDTILNLIRIAGDYVSEEVWYRVLQIVTNRDDVQGYAAKTVFEALQAPACHENMVKVGGYILGEFGNLIAGDPRSSPPVQFSLLHSKFHLCSVATRALLLSTYIKFINLFPETKATIQGVLRAGSQLRNADVELQQRAVEYLTLSSVASTDVLATVLEEMPPFPERESSILAKLKRKKGPGAGSALDDGRRDPSSNDINGGMEPTPSTVSTPSPSADLLGLRAAPPPAAPPASAGAGNLLVDVFDGPAAQPSLGPTPEEAFLSELEPPAPESPMALLADPAPAADPGPEDIGPPIPEADELLNKFVCKNNGVLFENQLLQIGVKSEFRQNLGRMYLFYGNKTSVQFQNFSPTVVHPGDLQTQLAVQTKRVAAQVDGGAQVQQVLNIECLRDFLTPPLLSVRFRYGGAPQALTLKLPVTINKFFQPTEMAAQDFFQRWKQLSLPQQEAQKIFKANHPMDAEVTKAKLLGFGSALLDNVDPNPENFVGAGIIQTKALQVGCLLRLEPNAQAQMYRLTLRTSKEPVSRHLCELLAQQF
modifications: full-length
B6: O43175 (protein, UniProt O43175 1-533, looked up)
chain: MAFANLRKVLISDSLDPCCRKILQDGGLQVVEKQNLSKEELIAELQDCEGLIVRSATKVTADVINAAEKLQVVGRAGTGVDNVDLEAATRKGILVMNTPNGNSLSAAELTCGMIMCLARQIPQATASMKDGKWERKKFMGTELNGKTLGILGLGRIGREVATRMQSFGMKTIGYDPIISPEVSASFGVQQLPLEEIWPLCDFITVHTPLLPSTTGLLNDNTFAQCKKGVRVVNCARGGIVDEGALLRALQSGQCAGAALDVFTEEPPRDRALVDHENVISCPHLGASTKEAQSRCGEEIAVQFVDMVKGKSLTGVVNAQALTSAFSPHTKPWIGLAEALGTLMRAWAGSPKGTIQVITQGTSLKNAGNCLSPAVIVGLLKEASKQADVNLVNAKLLVKEAGLNVTTSHSPAAPGEQGFGECLLAVALAGAPYQAVGLVQGTTPVLQGLNGAVFRPEVPLRRDLPLLLFRTQTSDPAMLPTMIGLLAEAGVRLLSYQTSLVSDGETWHVMGISSLLPSLEAWKQHVTEAFQFHF
modifications: full-length
B7: P13674 (protein, UniProt P13674 1-534, looked up)
chain: MIWYILIIGILLPQSLAHPGFFTSIGQMTDLIHTEKDLVTSLKDYIKAEEDKLEQIKKWAEKLDRLTSTATKDPEGFVGHPVNAFKLMKRLNTEWSELENLVLKDMSDGFISNLTIQRQYFPNDEDQVGAAKALLRLQDTYNLDTDTISKGNLPGVKHKSFLTAEDCFELGKVAYTEADYYHTELWMEQALRQLDEGEISTIDKVSVLDYLSYAVYQQGDLDKALLLTKKLLELDPEHQRANGNLKYFEYIMAKEKDVNKSASDDQSDQKTTPKKKGVAVDYLPERQKYEMLCRGEGIKMTPRRQKKLFCRYHDGNRNPKFILAPAKQEDEWDKPRIIRFHDIISDAEIEIVKDLAKPRLRRATISNPITGDLETVHYRISKSAWLSGYENPVVSRINMRIQDLTGLDVSTAEELQVANYGVGGQYEPHFDFARKDEPDAFKELGTGNRIATWLFYMSDVSAGGATVFPEVGASVWPKKGTAVFWYNLFASGEGDYSTRHAACPVLVGNKWVSNKWLHERGQEFRRPCTLSELE
modifications: full-length
B8: P25705 (protein, UniProt P25705 1-553, looked up)
chain: MLSVRVAAAVVRALPRRAGLVSRNALGSSFIAARNFHASNTHLQKTGTAEMSSILEERILGADTSVDLEETGRVLSIGDGIARVHGLRNVQAEEMVEFSSGLKGMSLNLEPDNVGVVVFGNDKLIKEGDIVKRTGAIVDVPVGEELLGRVVDALGNAIDGKGPIGSKTRRRVGLKAPGIIPRISVREPMQTGIKAVDSLVPIGRGQRELIIGDRQTGKTSIAIDTIINQKRFNDGSDEKKKLYCIYVAIGQKRSTVAQLVKRLTDADAMKYTIVVSATASDAAPLQYLAPYSGCSMGEYFRDNGKHALIIYDDLSKQAVAYRQMSLLLRRPPGREAYPGDVFYLHSRLLERAAKMNDAFGGGSLTALPVIETQAGDVSAYIPTNVISITDGQIFLETELFYKGIRPAINVGLSVSRVGSAAQTRAMKQVAGTMKLELAQYREVAAFAQFGSDLDAATQQLLSRGVRLTELLKQGQYSPMAIEEQVAVIYAGVRGYLDKLEPSKITKFENAFLSHVVSQHQALLGTIRADGKISEQSDAKLKEIVTNFLAGFEA
modifications: full-length
B9: P05141 (protein, UniProt P05141 1-298, looked up)
chain: MTDAAVSFAKDFLAGGVAAAISKTAVAPIERVKLLLQVQHASKQITADKQYKGIIDCVVRIPKEQGVLSFWRGNLANVIRYFPTQALNFAFKDKYKQIFLGGVDKRTQFWLYFAGNLASGGAAGATSLCFVYPLDFARTRLAADVGKAGAEREFRGLGDCLVKIYKSDGIKGLYQGFNVSVQGIIIYRAAYFGIYDTAKGMLPDPKNTHIVISWMIAQTVTAVAGLTSYPFDTVRRRMMMQSGRKGTDIMYTGTLDCWRKIARDEGGKAFFKGAWSNVLRGMGGAFVLVLYDEIKKYT
modifications: full-length
B10: P06702 (protein, UniProt P06702 1-114, looked up)
chain: MTCKMSQLERNIETIINTFHQYSVKLGHPDTLNQGEFKELVRKDLQNFLKKENKNEKVIEHIMEDLDTNADKQLSFEEFIMLMARLTWASHEKMHEGDEGPGHHHKPGLGEGTP
modifications: full-length

Test system: proteins that co-immunoprecipitated with DUX4-CTD constructs expressed in MB135 myoblasts
Experiment: LC-MS of proteins co-immunoprecipitated with DUX4-CTD (Table 1) and western validation
Assay type: binding, human
Design: key to 4. mL1dL2 + Dox + IFNG / 4. + IFNG mix / 4. longCTD + Dox + IFNG / 3. + IFNg + Dox longCTD / 3. + Dox longCTD / 3. + IFNG longCTD: peptide-spectrum matches (PSMs) per protein
Conditions: LC-MS counts of the listed protein co-immunoprecipitated with DUX4-CTD bait longCTD; experiment 4, Dox + IFNG
How it was run: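 Two independent experiments compared uninduced, doxycycline and doxycycline+IFNG MB135iDUX4-CTD (plus MB135iDUX4mL1dL2) myoblasts. Anti-FLAG pulldowns (3 h, 4 °C) were eluted in LDS buffer for western validation or with FLAG peptide for trypsin digestion and Orbitrap LC-MS; hits needed ≥2 PSMs in both experiments, ranked by total PSMs.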

B1 was tested. Which “4. longCTD + Dox + IFNG” value did it give?
The value was 3.

For B2, which “4. longCTD + Dox + IFNG” value is on record?
Its value is 2.

How did the “4. longCTD + Dox + IFNG” value turn out when B3 was run?
The value was 2.

With B4 as the molecule, how does the “4. longCTD + Dox + IFNG” value read?
Its value is 5.

Which “4. longCTD + Dox + IFNG” value does the source give for B5 here?
The value was 2.

How did the “4. longCTD + Dox + IFNG” value turn out when B6 was run?
Its value is 1.

B7 was tested. Which “4. longCTD + Dox + IFNG” value did it give?
Its value is 9.

B8 was tested. Which “4. longCTD + Dox + IFNG” value did it give?
The value was 4.

B9 was tested. Which “4. longCTD + Dox + IFNG” value did it give?
The value was 6.

Same assay, conditions: bait longCTD; experiment 3, Dox only

How did the “3. + Dox longCTD” value turn out when B1 was run?
Its value is 4.

How did the “3. + Dox longCTD” value turn out when B3 was run?
The value was 4.

For B4, which “3. + Dox longCTD” value is on record?
The value was 2.

With B5 as the molecule, how does the “3. + Dox longCTD” value read?
The value was 10.

B6 was tested. Which “3. + Dox longCTD” value did it give?
The value was 1.

With B7 as the molecule, how does the “3. + Dox longCTD” value read?
The value was 3.

Which “3. + Dox longCTD” value does the source give for B8 here?
The value was 1.

Which “3. + Dox longCTD” value does the source give for B10 here?
The value was 1.

Same assay, conditions: bait longCTD; experiment 3, IFNG only, no doxycycline (bait at background level)

With B3 as the molecule, how does the “3. + IFNG longCTD” value read?
Its value is 1.

Same assay, conditions: bait longCTD; experiment 3, IFNg + Dox

Which “3. + IFNg + Dox longCTD” value does the source give for B1 here?
The value was 10.

With B2 as the molecule, how does the “3. + IFNg + Dox longCTD” value read?
The value was 1.

For B3, which “3. + IFNg + Dox longCTD” value is on record?
Its value is 14.

B4 was tested. Which “3. + IFNg + Dox longCTD” value did it give?
Its value is 2.

Which “3. + IFNg + Dox longCTD” value does the source give for B5 here?
Its value is 31.

How did the “3. + IFNg + Dox longCTD” value turn out when B6 was run?
The value was 3.

B7 was tested. Which “3. + IFNg + Dox longCTD” value did it give?
The value was 5.

With B8 as the molecule, how does the “3. + IFNg + Dox longCTD” value read?
Its value is 2.

For B9, which “3. + IFNg + Dox longCTD” value is on record?
Its value is 3.

With B10 as the molecule, how does the “3. + IFNg + Dox longCTD” value read?
The value was 1.

Same assay, conditions: sum over all samples

With B1 as the molecule, how does the “SUM of PSMS” value read?
The value was 18.

B2 was tested. Which “SUM of PSMS” value did it give?
Its value is 8.

With B3 as the molecule, how does the “SUM of PSMS” value read?
The value was 30.

B4 was tested. Which “SUM of PSMS” value did it give?
Its value is 15.

How did the “SUM of PSMS” value turn out when B5 was run?
Its value is 48.

For B6, which “SUM of PSMS” value is on record?
The value was 6.

How did the “SUM of PSMS” value turn out when B7 was run?
The value was 45.

How did the “SUM of PSMS” value turn out when B8 was run?
Its value is 17.

For B9, which “SUM of PSMS” value is on record?
Its value is 9.

With B10 as the molecule, how does the “SUM of PSMS” value read?
Its value is 4.
